This note sets out measurements from PMC5084270 (The Journal of Cell Biology, 2016).

In this assay the target is FLAG-DDB1 (UniProt Q16531 1-1140). Put plainly: pull-down.
FLAG-DDB1, sequence (Q16531 whole entry): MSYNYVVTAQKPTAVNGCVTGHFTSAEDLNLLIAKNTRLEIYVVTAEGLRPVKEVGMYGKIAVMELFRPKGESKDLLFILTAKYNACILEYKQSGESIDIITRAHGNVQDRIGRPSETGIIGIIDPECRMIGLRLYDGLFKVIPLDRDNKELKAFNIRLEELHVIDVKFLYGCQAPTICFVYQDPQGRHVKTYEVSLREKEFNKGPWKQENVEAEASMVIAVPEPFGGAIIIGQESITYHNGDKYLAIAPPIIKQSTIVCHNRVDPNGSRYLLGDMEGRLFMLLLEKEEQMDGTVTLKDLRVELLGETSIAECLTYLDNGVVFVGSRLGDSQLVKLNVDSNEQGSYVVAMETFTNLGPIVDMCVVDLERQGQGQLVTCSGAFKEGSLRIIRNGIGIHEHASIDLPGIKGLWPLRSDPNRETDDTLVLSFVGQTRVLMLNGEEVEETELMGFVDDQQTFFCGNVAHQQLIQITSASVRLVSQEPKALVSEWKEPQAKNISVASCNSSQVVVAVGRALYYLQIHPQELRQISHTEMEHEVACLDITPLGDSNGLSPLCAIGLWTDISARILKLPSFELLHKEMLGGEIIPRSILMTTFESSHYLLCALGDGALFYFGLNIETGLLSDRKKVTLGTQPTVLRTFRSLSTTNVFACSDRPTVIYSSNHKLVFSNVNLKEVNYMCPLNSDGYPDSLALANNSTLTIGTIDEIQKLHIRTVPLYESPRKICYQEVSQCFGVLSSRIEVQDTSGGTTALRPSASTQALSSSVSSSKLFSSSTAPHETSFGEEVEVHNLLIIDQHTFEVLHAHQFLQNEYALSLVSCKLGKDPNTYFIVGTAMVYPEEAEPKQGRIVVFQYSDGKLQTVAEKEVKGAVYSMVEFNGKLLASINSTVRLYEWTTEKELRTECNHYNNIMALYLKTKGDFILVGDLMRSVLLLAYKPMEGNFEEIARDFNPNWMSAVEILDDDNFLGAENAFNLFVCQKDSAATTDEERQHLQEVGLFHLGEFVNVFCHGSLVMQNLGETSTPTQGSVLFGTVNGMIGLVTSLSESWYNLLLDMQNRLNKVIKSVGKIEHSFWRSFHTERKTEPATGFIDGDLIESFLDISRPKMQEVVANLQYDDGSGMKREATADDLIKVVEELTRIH

B1: GFP-DDB2 (natural protein)
chain: MAPKKRPETQKTSEIVLRPRNKRSRSPLELEPEAKKLCAKGSGPSRRCDSDCLWVGLAGPQILPPCRSIVRTLHQHKLGRASWPSVQQGLQQSFLHTLDSYRILQKAAPFDRRATSLAWHPTHPSTVAVGSKGGDIMLWNFGIKDKPTFIKGIGAGGSITGLKFNPLNTNQFYASSMEGTTRLQDFKGNILRVFASSDTINIWFCSLDVSASSRMVVTGDNVGNVILLNMDGKELWNLRMHKKKVTHVALNPCCDWFLATASVDQTVKIWDLRQVRGKASFLYSLPHRHPVNAACFSPDGARLLTTDQKSEIRVYSASQWDCPLGLIPHPHRHFQHLTPIKAAWHPRYNLIVVGRYPDPNFKSCTPYELRTIDVFDGNSGKMMCQLYDPESSGISSLNEFNPMGDTLASAMGYHILIWSQEEARTRK
As for B1, the binding result is given as “binds”.
